Laboratory results taken from patent US20100293752A1.

How the values were obtained:
[1] = molecular target: CFP from CFP-empty plasmid (pECFP); experiment: FRET by acceptor photobleaching, negative control: cotransfection of CFP- and YFP-empty plasmids
[2] = molecular target: CFP-tagged CD44 (human full length CD44s cDNA fused in frame into pECFP, expressed in MDA-MB231 cells) (human) (UniProt P16070); experiment: FRET by acceptor photobleaching in MDA-MB231 cells, in the presence of the mutated OPN-R3 RNA aptamer (control)
[3] = molecular target: CFP-tagged CD44 (human full length CD44s cDNA fused in frame into pECFP, expressed in MDA-MB231 cells) (human) (UniProt P16070); experiment: FRET by acceptor photobleaching, confocal microscopy, MDA-MB231 cells coexpressing CFP-CD44 and YFP-OPN
[4] = molecular target: CFP-tagged CD44 (human full length CD44s cDNA fused in frame into pECFP, expressed in MDA-MB231 cells) (human) (UniProt P16070); experiment: FRET by acceptor photobleaching in MDA-MB231 cells, in the presence of blocking antibody to αvβ3 integrin

Row | Substance | FRET efficiency [1] [%] | FRET efficiency [2] [%] | FRET efficiency [3] [%] | FRET efficiency [4] [%]
1 | YFP from YFP-empty plasmid (pEYFP) | 0.23 | – | – | –
2 | YFP-tagged OPN (human OPN-a cDNA fused in frame into pEYFP, expressed in MDA-MB231 cells) (from UniProt P10451 1-314) (ligand) | – | 23.1 | 24.2 | 19.6
